Assay results published in the supplement of paper PMC10126150.
± gives the standard deviation of the averaged measurements.

System: ATP
Test: switch fluorescence ratio, 500 uM ATP over buffer (Cy3 cluster intensity, sum of 5 cycles each) (fold (ratio)); higher = stronger signal-on switching upon ATP binding; sequences stand for … in TCGTCGGCAGCGTCAGATGTGTATAAGAGACAGTTTTTTTTTTTTTTTTTTTTTTTTT…TC
Settings: aptamer strand: ATP DNA aptamer (quencher-CACCTGGGGGAGTATTGCGGAGGAAGG + anchor), 100 nM annealed; ATP concentration: 500 uM
Summary of the method: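 Cy3-labelled switching-strand clusters on a modified Illumina MiSeq flow-cell were annealed to 100 nM quencher-labelled ATP aptamer and imaged first in selection buffer, then after 15 min with 500 uM ATP at 22 °C. NaOH stripping and re-annealing separated each of five buffer/ATP cycles, and clusters outside 100-1000 RFU were excluded. The fluorescence ratio sums target-cycle Cy3 intensity over buffer-cycle Cy3 intensity per cluster and averages it per switch-domain sequence.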
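Note: ATP exposure 15 min at 22 °C before imaging.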

| Sequence | switch fluorescence ratio |
| --- | --- |
| TAATGGGTTT | 0.999 ± 0.062 |
| TAATGGTCGG | 0.985 ± 0.053 |
| TAATGGTT | 0.979 ± 0.011 |
| TAATGTATGT | 0.977 ± 0.018 |
| TAATGTATTA | 1.01 ± 0.027 |
| TAATGTGTAA | 0.9944 ± 0.0052 |
| TAATGTTATT | 0.987 ± 0.017 |
| TAATTAATGG | 1 ± 0.031 |
| TAATTACCTC | 1.04 ± 0.013 |
| TAATTAGTGG | 0.9832 ± 0.0051 |
| TAATTAGTGT | 0.979 ± 0.013 |
| TAATTATGTG | 0.986 ± 0.024 |
| TAATTCAGGG | 1.03 ± 0.032 |
| TAATTCATCG | 0.97196 ± 0.00069 |
| TAATTCTTGG | 0.972 ± 0.046 |
| TAATTGATGT | 1.01 ± 0.06 |
| TAATTGGACG | 1.12 ± 0.062 |
| TAATTGGATG | 0.992 ± 0.027 |
| TAATTGGCAA | 1.004 ± 0.0017 |
| TAATTGGGAA | 0.997 ± 0.035 |
| TAATTGGGGT | 0.994 ± 0.018 |
| TAATTGGTGG | 1.01 ± 0.029 |
| TAATTGTGCT | 0.979 ± 0.026 |
| TAATTGTTGT | 1.003 ± 0.005 |
| TAATTTATAC | 1.053 ± 0.0054 |
| TAATTTCTAC | 1.005 ± 0.0054 |

| Sequence | switch fluorescence ratio |
| --- | --- |
| TAATTTCTTA | 0.996 ± 0.014 |
| TAATTTCTTG | 1.013 ± 0.0018 |
| TAATTTGCGT | 1 ± 0.019 |
| TAATTTGTGC | 1.01 ± 0.044 |
| TAATTTGTGG | 0.995 ± 0.023 |
| TAATTTTAGG | 0.996 ± 0.012 |
| TAATTTTCCG | 1.02 ± 0.043 |
| TAATTTTTAA | 0.99 ± 0.029 |
| TACAAAGAGT | 1.04 ± 0.025 |
| TACAAGAAGG | 1.015 ± 0.0066 |
| TACAATTTTG | 1.013 ± 0.0017 |
| TACACCGTCA | 1.08 ± 0.023 |
| TACAGAGTTT | 0.977 ± 0.015 |
| TACAGCTGCG | 1.007 ± 0.0015 |
| TACAGCTGTG | 0.9865 ± 0.0083 |
| TACAGTTGGC | 1.03 ± 0.084 |
| TACATACTCT | 1.29 ± 0.023 |
| TACATAGGTT | 1.048 ± 0.006 |
| TACATGGGTG | 1.01 ± 0.054 |
| TACATGTGCT | 0.996 ± 0.035 |
| TACATTGACG | 1.025 ± 0.0089 |
| TACCAAAGGT | 1.02 ± 0.031 |
| TACCAAGGGA | 0.991 ± 0.00097 |
| TACCACGTTG | 1 ± 0.009 |
| TACCAGCCGA | 1.06 ± 0.043 |
| TACCATGGCG | 0.9983 ± 0.0058 |

| Sequence | switch fluorescence ratio |
| --- | --- |
| TACCCAAAAT | 1.1 ± 0.15 |
| TACCCAGATT | 1.66 ± 0.98 |
| TACCCATTAC | 1.72 ± 0.041 |
| TACCCGGACA | 1.091 ± 0.0053 |
| TACCGGGCAC | 1.11 ± 0.03 |
| TACCGTATTT | 1.04 ± 0.027 |
| TACCTAGAAC | 1.07 ± 0.056 |
| TACCTGAAAA | 0.985 ± 0.022 |
| TACCTGCAGC | 1.12 ± 0.064 |
| TACCTGCCGG | 1.08 ± 0.026 |
| TACCTTGAGC | 0.9999 ± 0.0034 |
| TACGAAATGT | 1.041 ± 0.0098 |
| TACGAACTAT | 1.33 ± 0.052 |
| TACGAATAGA | 1.056 ± 0.0097 |
| TACGAATATT | 1.025 ± 0.0046 |
| TACGACGGGC | 1.57 ± 0.5 |
| TACGAGCCAC | 1.31 ± 0.032 |
| TACGAGCCGC | 0.989 ± 0.057 |
| TACGAGGTTG | 1 ± 0.02 |
| TACGAGTCGT | 1.01 ± 0.022 |
| TACGATGACT | 1.19 ± 0.11 |
| TACGATGAGT | 0.996 ± 0.02 |
| TACGATGGTA | 0.9792 ± 0.0049 |
| TACGCCGGAA | 1.33 ± 0.37 |
| TACGCTGCAG | 1.05 ± 0.049 |
| TACGGCCGAG | 1 ± 0.0029 |

| Sequence | switch fluorescence ratio |
| --- | --- |
| TACGGCGGGG | 1.02 ± 0.047 |
| TACGGGATGG | 0.989 ± 0.029 |
| TACGGGCGGA | 1.02 ± 0.034 |
| TACGGGGGAT | 1.02 ± 0.054 |
| TACGGGTATA | 1.01 ± 0.025 |
| TACGGTGGGT | 0.982 ± 0.032 |
| TACGTACGTT | 1.41 ± 0.062 |
| TACGTAGGCA | 1.073 ± 0.0077 |
| TACGTGCATA | 1.122 ± 0.0033 |
| TACGTGGCTG | 1.05 ± 0.073 |
| TACGTGGTAG | 1.06 ± 0.05 |
| TACGTTGAGC | 1.02 ± 0.02 |
| TACTAACCTT | 1.43 ± 0.18 |
| TACTAATGTT | 1.03 ± 0.044 |
| TACTAGGCTG | 0.992 ± 0.081 |
| TACTATATGG | 1.03 ± 0.011 |
| TACTATGTGG | 1.013 ± 0.0014 |
| TACTCCGTTT | 2.15 ± 0.34 |
| TACTCGAGTT | 0.977 ± 0.015 |
| TACTCGCCGT | 1.053 ± 0.0064 |
| TACTCGGGGT | 1.004 ± 0.0064 |
| TACTCTGGTG | 1.43 ± 0.019 |
| TACTGACGGT | 1.4 ± 0.032 |
| TACTGCTCTA | 1.022 ± 0.01 |
| TACTGTATTG | 1.03 ± 0.13 |
| TACTGTGGGT | 0.9726 ± 0.0035 |

| Sequence | switch fluorescence ratio |
| --- | --- |
| TACTGTGTCT | 0.98144 ± 0.00053 |
| TACTTAATGT | 1.032 ± 0.0033 |
| TACTTACTAA | 1.19 ± 0.036 |
| TACTTAGCCC | 1.07 ± 0.022 |
| TACTTGAGTA | 1.0026 ± 0.00022 |
| TACTTGATCT | 1.001 ± 0.0033 |
| TACTTGGGAG | 1.027 ± 0.0036 |
| TACTTGTTTT | 1 ± 0.033 |
| TACTTTCGTA | 0.983 ± 0.011 |
| TACTTTGCTC | 1.03 ± 0.016 |
| TACTTTGGTT | 0.975 ± 0.038 |
| TAGAAAAAGC | 0.9717 ± 0.0093 |
| TAGAAACGAG | 1.02 ± 0.087 |
| TAGAAAGTGC | 1.02 ± 0.099 |
| TAGAAATACT | 1.54 ± 0.2 |
| TAGAAATGGT | 0.994 ± 0.041 |
| TAGAACTGGG | 1.05 ± 0.037 |
| TAGAAGGAAA | 0.9997 ± 0.0017 |
| TAGAAGGAAT | 1.05 ± 0.044 |
| TAGAAGTGCG | 1.01 ± 0.041 |
| TAGAATGGC | 1.01 ± 0.054 |
| TAGAATGGCT | 0.9907 ± 0.0057 |
| TAGAATGTT | 1.01 ± 0.015 |
| TAGAATTACT | 1.05 ± 0.056 |
| TAGAATTCTT | 0.997 ± 0.078 |
| TAGAATTTTT | 0.998 ± 0.017 |

| Sequence | switch fluorescence ratio |
| --- | --- |
| TAGACAGGGG | 1 ± 0.037 |
| TAGACGAAAA | 1.03 ± 0.024 |
| TAGACGGATT | 1.04 ± 0.066 |
| TAGACTCGGT | 0.993 ± 0.053 |
| TAGACTGGGG | 0.966 ± 0.11 |
| TAGACTGGTG | 1.01 ± 0.017 |
| TAGACTTGTT | 0.996 ± 0.02 |
| TAGAGAGGGA | 1.04 ± 0.096 |
| TAGAGAGGGT | 0.995 ± 0.035 |
| TAGAGATTTT | 1 ± 0.046 |
| TAGAGGAGTT | 0.951 ± 0.051 |
| TAGAGGATCA | 1 ± 0.056 |
| TAGAGGGAGG | 0.967 ± 0.014 |
| TAGAGGGCAG | 1.03 ± 0.023 |
| TAGAGGGGGG | 0.985 ± 0.038 |
| TAGAGGTGTG | 0.99 ± 0.019 |
| TAGAGTTGGG | 0.986 ± 0.015 |
| TAGATAGAGG | 0.961 ± 0.016 |
| TAGATATTGG | 1.01 ± 0.016 |
| TAGATCATGC | 0.994 ± 0.024 |
| TAGATCTTAC | 1.05 ± 0.046 |
| TAGATGACGG | 1.01 ± 0.041 |
| TAGATGCCAG | 1.07 ± 0.039 |
